From paper doi:10.1101/2024.10.14.618187, “Molecular basis of interchain disulfide-bond formation in BMP-9 and BMP-10” (bioRxiv, 2024) come the findings set out here.

Data set [1] deals with the molecule itself. The data set can be described thus: crystal structure; purified BMP-9 dimers at acidic pH: wild type 0.3 M sodium citrate pH 3.5; mutants 0.1 M acetic acid pH 4.
Data set [2] deals with the molecule itself. The data set can be described thus: non-reducing SDS-PAGE after IMAC, with densitometry; His-tagged pro-proteins purified from expi293 conditioned medium by IMAC, run non-reduced and reduced; shows the disulfide-linked dimer beside the monomer; bands quantified with ImageJ.

B1: BMP-9 G389S dimer (ligand, human, UniProt Q9UK05 320-429, looked up)
chain: SSGAGSHCQKTSLRVNFEDIGWDSWIIAPKEYEAYECKGGCFFPLADDVTPTKHAIVQTLVHLKFPTKVSKACCVPTKLSPISVLYKDDMGVPTLKYHYEGMSVAECGCR
modifications: interchain disulfide at Cys-392
notes: human BMP-9 growth factor domain from a mutant of Pro-(X)-BMP-9 (proBMP9 residues 23-429, A321S, RRKR replaced by IEGR); numbers count on the precursor; Rows of m3 with m3 mean the two chains of the dimer; source: expi293 (suspension HEK293), mutant of Pro-(X)-BMP-9; purified dimer
B1: in data set [1], the binding result is reported as “binds”.

B2: BMP-9 G389S, K357R dimer (ligand, human, UniProt Q9UK05 320-429, looked up)
chain: SSGAGSHCQKTSLRVNFEDIGWDSWIIAPKEYEAYECRGGCFFPLADDVTPTKHAIVQTLVHLKFPTKVSKACCVPTKLSPISVLYKDDMGVPTLKYHYEGMSVAECGCR
modifications: interchain disulfide at Cys-392
notes: human BMP-9 growth factor domain from a mutant of Pro-(X)-BMP-9 (proBMP9 residues 23-429, A321S, RRKR replaced by IEGR); numbers count on the precursor; Rows of m4 with m4 mean the two chains of the dimer; also called BMP-9 double-mutant; source: expi293 (suspension HEK293), mutant of Pro-(X)-BMP-9; purified dimer
For B2, the binding result in data set [1] is “binds”.

B3: Pro-(fr)-BMP-9 (natural protein, human, UniProt Q9UK05 23-429, looked up)
chain: KPLQSWGRGSAGGNAHSPLGVPGGGLPEHTFNLKMFLENVKVDFLRSLNLSGVPSQDKTRVEPPQYMIDLYNRYTSDKSTTPASNIVRSFSMEDAISITATEDFPFQKHILLFNISIPRHEQITRAELRLYVSCQNHVDPSHDLKGSVVIYDVLDGTDAWDSATETKTFLVSQDIQDEGWETLEVSSAVKRWVRSDSTKSKNKLEVTVESHRKGCDTLDISVPPGSRNLPFFVVFSNDHSSGTKETRLELREMISHEQESVLKKLSKDGSTEAGESSHEEDTDGHVAAGSTLARRKRSSGAGSHCQKTSLRVNFEDIGWDSWIIAPKEYEAYECKGGCFFPLADDVTPTKHAIVQTLVHLKFPTKVGKACCVPTKLSPISVLYKDDMGVPTLKYHYEGMSVAECGCR
notes: human proBMP9 residues 23-429 with the natural furin site; secreted partially processed; Partly cut by furin into prodomain and growth factor (12 and 24 kDa forms on the gel); also called Pro-BMP-9 with unmodified furin processing site; wild-type BMP-9; source: expi293 (suspension HEK293), secreted; purified by IMAC; not shown: 8xHis, N-terminal, kept
Regarding B3, in data set [2], the binding result is on record as “binds”.

B4: Pro-(X)-BMP-9 K357R (natural protein, human, UniProt Q9UK05 23-429, looked up)
chain: KPLQSWGRGSAGGNAHSPLGVPGGGLPEHTFNLKMFLENVKVDFLRSLNLSGVPSQDKTRVEPPQYMIDLYNRYTSDKSTTPASNIVRSFSMEDAISITATEDFPFQKHILLFNISIPRHEQITRAELRLYVSCQNHVDPSHDLKGSVVIYDVLDGTDAWDSATETKTFLVSQDIQDEGWETLEVSSAVKRWVRSDSTKSKNKLEVTVESHRKGCDTLDISVPPGSRNLPFFVVFSNDHSSGTKETRLELREMISHEQESVLKKLSKDGSTEAGESSHEEDTDGHVAAGSTLAIEGRSSGAGSHCQKTSLRVNFEDIGWDSWIIAPKEYEAYECRGGCFFPLADDVTPTKHAIVQTLVHLKFPTKVGKACCVPTKLSPISVLYKDDMGVPTLKYHYEGMSVAECGCR
notes: also called K357R BMP-9; source: expi293 (suspension HEK293), secreted; purified by IMAC; not shown: 8xHis, N-terminal, kept
For B4, in data set [2], the binding result is reported as “binds”.

B5: Pro-(X)-BMP-9 G389S, K357R (natural protein, human, UniProt Q9UK05 23-429, looked up)
chain: KPLQSWGRGSAGGNAHSPLGVPGGGLPEHTFNLKMFLENVKVDFLRSLNLSGVPSQDKTRVEPPQYMIDLYNRYTSDKSTTPASNIVRSFSMEDAISITATEDFPFQKHILLFNISIPRHEQITRAELRLYVSCQNHVDPSHDLKGSVVIYDVLDGTDAWDSATETKTFLVSQDIQDEGWETLEVSSAVKRWVRSDSTKSKNKLEVTVESHRKGCDTLDISVPPGSRNLPFFVVFSNDHSSGTKETRLELREMISHEQESVLKKLSKDGSTEAGESSHEEDTDGHVAAGSTLAIEGRSSGAGSHCQKTSLRVNFEDIGWDSWIIAPKEYEAYECRGGCFFPLADDVTPTKHAIVQTLVHLKFPTKVSKACCVPTKLSPISVLYKDDMGVPTLKYHYEGMSVAECGCR
notes: also called G389S, K357R BMP-9; BMP-9 double mutant; source: expi293 (suspension HEK293), secreted; purified by IMAC; not shown: 8xHis, N-terminal, kept
As to B5, the binding result in data set [2] is “binds”.

B6: Pro-(X)-BMP-9 G389S (natural protein, human, UniProt Q9UK05 23-429, looked up)
chain: KPLQSWGRGSAGGNAHSPLGVPGGGLPEHTFNLKMFLENVKVDFLRSLNLSGVPSQDKTRVEPPQYMIDLYNRYTSDKSTTPASNIVRSFSMEDAISITATEDFPFQKHILLFNISIPRHEQITRAELRLYVSCQNHVDPSHDLKGSVVIYDVLDGTDAWDSATETKTFLVSQDIQDEGWETLEVSSAVKRWVRSDSTKSKNKLEVTVESHRKGCDTLDISVPPGSRNLPFFVVFSNDHSSGTKETRLELREMISHEQESVLKKLSKDGSTEAGESSHEEDTDGHVAAGSTLAIEGRSSGAGSHCQKTSLRVNFEDIGWDSWIIAPKEYEAYECKGGCFFPLADDVTPTKHAIVQTLVHLKFPTKVSKACCVPTKLSPISVLYKDDMGVPTLKYHYEGMSVAECGCR
notes: also called G389S BMP-9; source: expi293 (suspension HEK293), secreted; purified by IMAC; not shown: 8xHis, N-terminal, kept
As to B6, the binding result in data set [2] is given as “binds”.
